The record followed here is publication PMC10069166 (Heliyon, 2023).

The target in the test is SARS-CoV-2 Spike protein (RBD, His & Avi tag) (SARS-CoV-2, wild type, UniProt P0DTC2). Nature of the test: BLI.

B1: 80R antibody (antibody, V domains shown)
VH: EVQLVQSGGGVVQPGKSLRLSCAASGFAFSSYAMHWVRQAPGKGLEWVAVISYDGSNKYYADSVKGRFTISRDNSKNTLYLQMNSLRAEDTAVYYCARDRSYYLDYWGQGTLVTVSS
VL: TTLTQSPATLSLSPGERATLSCRASQSVRSNLAWYQQKPGQAPRPLIYDASTRATGIPDRFSGSGSGTDFTLTISRLEPEDFAVYYCQQRSNWPPTFGQGTKVEVK
For B1, the binding result was “no binding (tested: 20 nM and 10 nM)”.
